Measured values reported in the DeepSol protein solubility set.

Experiment: soluble on expression in E. coli; label from the status in PepcDB or PDB records
For “MTQVLVRNGIQAVGDGLTSLIIVGKKSVLKNVTFEGKFKEVAQKFVTDGDSWNSMISRIPASGRHPLHYELAHLITVPDASSRGNTPTNAHSIYKELKPINYPEDTKNVHFVLFAEYPDVLSHVAAIARTFCKFSMKTSGIRELNVNIDVVCDKLTNEDAVFLTDLSESVRETARLIDTPANILTTDALVDEAVKVGNATGSKITVIRGEELLKAGFGGIYHVGKAGPTPPAFVVLSHEVPGSTEHIALVGKGVVYDTGGLQIKTKTGMPNMKRDMGGAAGMLEAYSALVKHGFSQTLHACLCIVENNVSPIANKPDDIIKMLSGKTVEINNTDAEGRLILADGVFYAKETLKATTIFDMATLTGAQAWLSGRLHGAAMTNDEQLENEIIKAGKASGDLVAPMLFAPDLFFGDLKSSIADMKNSNLGKMDGPPSAVAGLFIGAHIGFGEGLRWLHLDIAAPAEVGDRGTGYGPALFSTLLGKYTSVPMLKQ”, the “soluble on expression in E. coli” value was “soluble”. For “MSLLKADGMAKKQTLLVGERLVWDKLTLLGFLEKNHIPQKLYYNLSSQDKELSAEIQSNVTYYTLRDANNTLIQALIPISQDLQIHIYKKGEDYFLDFIPIVFTRKERTLLLSLQTSPYQDIVKATNDPLLANQLMNAYKKSVPFKRLVKNDKIAIVYTRDYRVGQAFGQPTIKMAMVSSRLHQYYLFSHSNGRYYDSKAQEVAGFLLETPVKYTRISSPFSYGRFHPVLKVKRPHYGVDYAAKHGSLIHSASDGRVGFIGVKAGYGKVVEIHLNELRLVYAHMSAFANGLKKGSFVKKGQIIGRVGSTGLSTGPHLHFGVYKNSRPINPLGYIRTAKSKLHGKQREVFLEKAQYSKQKLEELFKTHSFEKNSFYLLEGFEGHHHHHH”, the “soluble on expression in E. coli” value was “soluble”. For “MDSFKVVLEGPAPWGFRLQGGKDFNVPLSISRLTPGGKAAQAGVAVGDWVLNIDGENAGSLTHIEAQNKIRACGERLSLGLSRAQPVQSKPQKVQTSDKQLLRQPVPDASKQRLMEDTEDWRPRPGTGQSRSFRILAHLTGTEFMQDPDEEFMKKSREKYVLELQSPRYTRLRDWHHQRSAHVLNVQS”, the “soluble on expression in E. coli” value was “soluble”. With “MTTVFDVPAAEMIDKLAGILKENENVVPPQWAGNVKTGVHKDLPPTNDDWWYVRCAAVLRKIYTDGPIGIERLRSVYGGKKDNGSQPYHKAKGSGSIARKSVQQLEAAGFLQKVKDGRTVSAKGRSMMDNAAHELKQELLEKIPELAKYLEHHHHHH” the “soluble on expression in E. coli” value was “soluble”. In the case of “EVRLVSLRRAKAHEGLGFSIRGGSEHGVGIYVSLVEPGSLAEKEGLRVGDQILRVNDKSLARVTHAEAVKALKGSKKLVLSVYSAGRI”, the “soluble on expression in E. coli” value is reported as “soluble”. With “MGITTNLISEVSKFYYALKYHAKFMSLGELGCYASHYSLWEKCIELNEAICILEDDITLKEDFKEGLDFLEKHIQELGYIRLMHLLYDASVKSEPLSHKNHEIQERVGIIKAYSEGVGTQGYVITPKIAKVFLKCSRKWVVPVDTIMDATFIHGVKNLVLQPFVIADDEQISTIARKEEPYSPKIALMRELHFKYLKYWQFVLEHHHHHH” the “soluble on expression in E. coli” value was “soluble”. With “GKKTRSVKSCVGKEFCRFGTQYTTRLGIRLEKTFEYIDTPHKFKMGVSGCPRSCVESGVKDFGVISVENGYQIFIGGNGGTDVTVGKLLTTVETEDEVIQLCGALMQYYRETGVYAERTAPWLERMGFENVKNVLLNQ” the “soluble on expression in E. coli” value was “not soluble”. With “MKLATLKNNTRDGQLVVVNRALDKAVVVSHIAATLQAALDNWSEISPKLAEVYQSLNNNEITDTLVFEQAACESPLPRAYQWADGSAYVNHVELVRKARNAEMPATFWTDPLMYQGGSDAFIGPRDDISIASEEYGIDFESEVAVITDDVPMGISVEQAANHIKLLMLVNDVSLRNLIPGELAKGFGFFASKPSSAFSPVAVTPDELGDAWDGKKLHLPLTTHLNETLFGQPNCGVDMTFDFPTIVAHAAKTRPLSTGCVIGSGTISNYDRSVGSSCLAEIRMLEIIADGKPTTPFMSFGDTVRIEMFDNEGASIFGSIDQKVVEYKAQ” the “soluble on expression in E. coli” value was “not soluble”. In the case of “MELAKKTGATVIGSAEMADYLSSYHGVENVHGMNIGGKANFDFGSVKFVQAFHSSSFTHENGIPVYLGMPMGIVFEVEGKTIYHTGDTGLFSDMSLIAKRHPVDVCFVPIGDNFTMGIDDASYAINEFIKPKISVPIHYDTFPLIEQDPQQFKDAVNVGDVQILKPGESVQFLEHHHHHH”, the “soluble on expression in E. coli” value is reported as “not soluble”. For “GPGSMPAIVKQLPSSDDDNDQASLSPAKQYAQLGEESSPAGASRAELSNAEAGAEAEGLAQPQKTDASGAERVVDVEECSRLKAAGNELFKDGNISEALTLYRKALWCAPLKPVRPHHPATGESSGLPTPPNGSAPAASSHTATQRDETEVEQQPEDKTDYTLTAQVYCNAGFCLMKLDVKEEAAHMLSEAIRHDDSYLKAYIRRADCYYMMQKWSSAYGDYESYEKLGGVLDAQGCTRKAASKAKVDEEMQKMLGELKSLGNKILGNFGLSTDNFKFDKDPNTGGYSMRFER”, the “soluble on expression in E. coli” value was “soluble”. For “MGSDKIHHHHHHMKKPQSNFPHLQLKDGILKDQLYHAFREAILDGRLHPRMKLPSSRALSETMQISRNSVLQGFERLIDEGYLLTKPGSGTYVSDTIPDELIDIPNSSRESAQAFDSNVDINPQLIEMARLKAKGNTDHSHSMLNIGVGCVDLFPHQLWGRLLGRVWRQSRKTLGKSNHSAGYLPLREAISDYARSTRGLNCTPEQIIIVNGTQQAINLTAQVLLQQGDEVWLDEPGYDGALGAFLSQNMRVRPVSVDVEGTNIADAIQRYPAVKLAFTAPSHQFPLGGMLSLPRRLALLDWAAEQSKWILEDDYNGEFRYSARPIQALQGLDKYQRVIYAGTFSKMLLPELRLGFLVVPSKLVQAFQLAKHYADTHTAHLEQATLALFITEGHYARHVRRVRKACLARQTALIAAIEQYLPDKLSVQTSDSGIHLVCWLKGDLTEEKVINKCRQLSLGAQPLSRYCQAPYPRQAILLGYAAHTPDELRESIKKLAQIL”, the “soluble on expression in E. coli” value was “not soluble”. With “MSLKTTTSSTPSDRITWVRISSCYLPLATPISDAKVLTGRQKPMTEIAILFAEIETAGGHQGLGFSYSKRAGGPGQFAHAREIAPALIGEDPSDIAKLWDKLCWAGASAGRSGLSTQAIGAFDVALWDLKAKRAGLSLAKLLGSYRDSVRCYNTSGGFLHTPIDQLMVNASASIERGIGGIKLKVGQPDGALDIARVTAVRKHLGDAVPLMVDANQQWDRPTAQRMCRIFEPFNLVWIEEPLDAYDHEGHAALALQFDTPIATGEMLTSAAEHGDLIRHRAADYLMPDAPRVGGITPFLKIASLAEHAGLMLAPHFAMELHVHLAAAYPREPWVEHFEWLEPLFNERIEIRDGRMLVPTRPGLGLTLSGQVKAWTREEAQVGTRPEGHHHHHH” the “soluble on expression in E. coli” value was “soluble”. For MLNRYYRFAVEKDDPSEAPESGDKPDSQPQKKS, the “soluble on expression in E. coli” value was “not soluble”. With “MGSDKIHHHHHHMARLPLKQFLADNPKKVLVLDGGQGTELENRGIKVANPVWSTIPFISESFWSDESSANRKIVKEMFNDFLNAGAEILMTTTYQTSYKSVSENTPIRTLSEYNNLLNRIVDFSRNCIGEDKYLIGCIGPWGAHICREFTGDYGAEPENIDFYQYFKPQLENFNKNDKLDLIGFETIPNIHELKAILSWDESILSRPFYIGLSVHEHGVLRDGTTMEEIAQVIKDLGDKINPNFSFLGINCVSFNQSPDILESLHQALPNMALLAYPNSGEVYDTEKKIWLPNSDKLNSWDTVVKQYISSGARIIGGCCRTSPKDIQEISAAVKKYT” the “soluble on expression in E. coli” value was “not soluble”. For “MSLSAFDAFPLGQPAFVTNILDRAAHLRRDDEKLFALEQKPSSRAYVVHRDSLLVKREGENVRALLGIDEALKCGANPGTIFLGLRDGAAVFGMGLSQAAAEKLVGREDYSLTELRGMAMQGAIPPDELSAIAMAKSMVSWHQRHGYCANCGTRSAMKEGGWKRDCPACKAEHFPRTDPVVIMLVASGEKCLLGRQKQFPPGMFSCLAGFVEAAETIEDAVRREILEESGIRCTDVQYYMTQPWPYPSSLMIGCSARALNEDIVVDHSELEDARWFTREEAALMLTRTHPDGLAGPHPFAIAHHLLGRWVHDKSGEGHHHHHH”, the “soluble on expression in E. coli” value was “soluble”. In the case of “MGSDKIHHHHHHMNRRDLLVGLGAATLVPKASWADAHNPAFLSAAQAPDGNYHLCGLDPRGDVVFSIPLPGRGHAAAAHPTRPEAVAFARRPGRFALILDCVTGQETARLLPPPNRHFYGHGTFSSDGDVLFTTENDLTTLEGRIGLWDAAHGYVRLGDVPSGGIGPHDIARLPGTETLVIANGGIATHPDSGRTPLNPATMRSNLAYMRTDGTLLERVELDVTLRQNSIRHLSIRDDGLVSAGMQWNGAEGEHPPLTLLHRIGAAPRLLAAPTQTHRQLDGYVGSISFDQAGAHVAVTSPRGGTVHIFDVNSGAFAGLITAEDICGLALSHRAGLIATTGQGITGFVAQDDLTQMRHSSWRWDNHIVAI”, the “soluble on expression in E. coli” value is reported as “not soluble”. For “SNTTEILTSVDVLGTHSQTGTQQSNMYTSTQKTELEIDNKDSVTECSKDMKEDGLSFVDIVLSKAASALDEKEKQLAVANEIIRSLSDEVMRNEIRITSLQGDLTFTKKCLENARSQISEKDAKINKLMEKDFQVNKEIKPY”, the “soluble on expression in E. coli” value was “soluble”. In the case of “MSEGSKQNKKSTDAFSKYMRKLFGIQEITESQREYIEKLERELESAKGTLSTREEKEMIRGLVKFGNIMVKQIMCPRMDMAAVDIALNYEQLQEYISTCGFSRIPVYKESADKIEGVLNIKDLFPFYNKEKDFNWQQLIRTVEFIPETKLIEELLREFQLKHLHMAIVVDEYGGTAGLITMEDVIEEIVGDIHDEYDDDEKPYAQLSDTSYLFEGKISLVDFYKAIELDKDIFDEVKGESETLGGLLLNINSDLPRLGDEIIYEGYVFKIDAVNSKRILRVKVTVPENSENEK”, the “soluble on expression in E. coli” value is reported as “soluble”. With “MILINVKYQVRPEYVDTFLDEVKWFTDACRAEEGNLFFDWFKNPEKDNEFILVEGFKDGSDVAHVQSEAFQRACEEIPRYLLETPKIINVSIPGKTEWDTMAEFVVE” the “soluble on expression in E. coli” value was “not soluble”. For “MVQDWHQQEKARMIQTLTGTKAVYGSEVESKIIEFAIVGADEVVAEKLGVSIGDFVYKIIRLRIIHSIPTIMEHTWMPISVIPGVEASVLEESIYSHIQNKLGLEVGTSVVRVKGIRPDDREKQFMNLTNQDFLMRVEQVAYLTDGRTFEYSYADHLPETFEFETVITAKKL”, the “soluble on expression in E. coli” value was “not soluble”. For “MGSDKIHHHHHHMTEWVPVIYGIGLDAAGRCQHYHLETDIAALWCRRCQHYYACYRCHDTLCQHTFVASAPTDLAVMCGACRYRMTVDRYHEGQCPHCHRPFNPRCRLHDQVYFEK”, the “soluble on expression in E. coli” value was “not soluble”. For “MFPSSEVEAKRTTLNLELESNTDRLLQEKDDLLPQSVTNSSDEGTPFAQVEGASDDNTAEQDSDKPGASVADADTKPVDPEWKTITVASGDTLSTVFTKAGLSTSAMHDMLTSSKDAKRFTHLKVGQEVKLKLDPKGELQALRVKQSELETIGLDKTDKGYSFKREKAQIDLHTAYAHGRITSSLFVAGRNAGLPYNLVTSLSNIFGYDIDFALDLREGDEFDVIYEQHKVNGKQVATGNILAARFVNRGKTYTAVRYTNKQGNTSYYRADGSSMRKAFIRTPVDFARISSRFSLGRRHPILNKIRAHKGVDYAAPIGTPIKATGDGKILEAGRKGGYGNAVVIQHGQRYRTIYGHMSRFAKGIRAGTSVKQGQIIGYVGMTGLATGPHLHYEFQINGRHVDPLSAKLPMADPLGGADRKRFMAQTQPMIARMDQEKKTLLALNKQR”, the “soluble on expression in E. coli” value was “not soluble”. In the case of “MAAAENRVQQVKGILTMAINNGTLWQVIDMRNNERLNCVDMAVRAGSETCAMLITKVAREYAKHRPRSEVEKKFDSMPTTEEDVTISLGPKTADTFDDNYVKELVRQSESASGHAVATKKLSREKISNSLAKGNVAAVQGREYLKMVKRSSSAHSRLMSQRTFSVESGSIDSSEPSTPQLTSPPADHGVFSSVGEKIRNIFGKKPPLHTKSLSVVQTDRIAAPAVRSSSISNKPLSYQTSGNSNEEDHLRLPQHSSSSESPPSEGPSNSGLFRWSSKDKPMTSTVSTANGVRLPPLSLRRRTNSDPKNRDFTSLGGDE”, the “soluble on expression in E. coli” value is reported as “not soluble”. For “MQSDHKEKIAILVDVQNVYYTCREAYRSNFDYNQFWYVATQEKEVVSAKAYAIASNDPKQRQFHHILRGVGFEVMLKPYIQRRDGSAKGDWDVGITLDAIEIAPDVDRVILVSGDGDFSLLVERIQQRYNKKVTVYGVPRLTSQTLIDCADNFVAIDDDFLL”, the “soluble on expression in E. coli” value was “soluble”.
